The record followed here is patent WO2002045743A2.

The target in assay [1] is MH2 peptide (Hepatitis C virus). The assay can be described thus: peptide EIA (Table 4).
For assay [2] the target is unchanged. The assay can be described thus: peptide EIA, Nunc-Immuno and CovaLab plates.
Assay [3] has the same target. The assay can be described thus: IAsys biosensor, BSA-HVR1 peptide conjugate.

B1: mAb 2P24 (antibody)
chain 1: EFQLQQSGAELVRPGPLVTLSCKASGFNIKDYYMNWVKQRPEQGLEWIGRIDPKNGNALYDPKFQDKARITADTSSNTAYLQLNSLTSEATAVYYCSSGWLDYWGQGTSLAVYS
chain 2: DIVMTQSPASLAVFRGQRATISYRASKSVSTSGYSYMHWNQQKPGQPPRLLIYLVSNLESGVPARFSGSGSGTDFTLNIHPVEEEDAATYYCQHIRELTAFGGGTK
Consider B1, for which the EIA Sample/Cutoff ratio (S/CO) in assay [1] and in assay [2] was 24.9 S/CO throughout. In assay [3], the Kd (commonly the concentration at which binding is half-saturated) is 5.85 nM.

B2: mAb 15H4 (antibody)
chain 1: QVQLQQSGAELARPGASVKLSCKASGYTFTRYWMQWVKQKPGQGLEWIGAIYCGDGDTRFTQKFKGKATLTADKSSSTAYMQLSNLASEDSAVYYCVIYGNYYDAMDYWGQGTSVTVSS
chain 2: DIVMTQAPLSMPVSLGDQASISGRSSQSLVHSNGNTYLHWYLQKPGQSPKLLIHKVSKRFSGVPDRFSGSGSGTDFTLKIRRVEAEDLGVYFCSQNTHVPFTFGGGTK
For B2, the EIA Sample/Cutoff ratio (S/CO) in assay [1] came out at 13.6 S/CO; in assay [2], 18.1 S/CO. Also, the Kd in assay [3] was determined as 21.5 nM.
